Here are results for one substance from publication doi:10.1101/2024.10.21.619555.

The target in this assay is DR6 ECD-Halo (UniProt O75509). As to the kind of experiment: single-molecule dual-color photobleaching.
Chain of DR6 ECD-Halo (O75509 42-349): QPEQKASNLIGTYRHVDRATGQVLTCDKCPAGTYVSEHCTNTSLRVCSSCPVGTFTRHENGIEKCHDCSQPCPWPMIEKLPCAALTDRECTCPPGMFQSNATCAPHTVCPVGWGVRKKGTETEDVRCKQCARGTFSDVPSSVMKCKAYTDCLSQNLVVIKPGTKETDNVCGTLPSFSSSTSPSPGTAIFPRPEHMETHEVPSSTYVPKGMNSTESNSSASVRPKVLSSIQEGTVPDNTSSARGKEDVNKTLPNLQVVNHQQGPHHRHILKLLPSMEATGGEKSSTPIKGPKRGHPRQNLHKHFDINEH

By stoichiometry N is commonly meant the number of molecules, sites or subunits per partner or assembly. With “RBP4-SNAP (from UniProt P02753 19-201) (ligand)”, the stoichiometry N is 1.
